Assay: soluble on expression in E. coli; label from the status in PepcDB or PDB records

Soluble on expression in E. coli, not soluble:
MGSDKIHHHHHHMAELSTRYNPAEIETKWYRYWEEKGYFTPKGVGEKFSIVIPPPNITGRIHMGHALNITLQDIVVRYKRMKGYDVLWVPGEDHAGIATQNAVEKFLLQTQGKTREEIGREKFLEITWEWANKYRREIREQIKALGASVDWTRERFTLDEGLSRAVRKVFVELYRKGLIYRGKYIVNWCPRCKTVLSDEEVEHKEHKSKLYYVKYPVKDSDEYIVVATTRPETMLGDTAVAVHPEDERYKNFVGKTLILPLVGREIPVVADKYVDPKFGTGAVKVTPAHDPNDYLIAQRHNLPMIEIFDDNARINENGGKYKGLDRYEAREKIVKDLEEQGFLVKIEDYTHSVGHCYRCDTVIEPKLSDQWFVSTKPLAKRAIEAVENGEIRFFPERWTKVYLNWMYEIRDWCISRQLWWGHRIPVWYCQDCGHLNVSEEDVEKCEKCGSTNLKQDEDVLDTWFSSALWPFSTLGWPEETEDLKRYYPTDLLVTGFDIIFFWVARMIMMGYEFMNDKPFSHVYIHQLVRDKYGRKMSKSLGNGIDPLEVIDEYGADPMRFTLAILAAQGRDIKLDPRYFDAYKKFANKIWNATRFVLMNLEDYKEVPLENLKTVDKWILTRLNKTVEEVTNALENYDFNIAARTIYNFFWDDFCDWYIEASKPRLKTEERNLVQTVLVKVLDASLRLLHPFMPFLTEELWQKLPVAGESITIAKWPEIERELIDETAEKEFTRLMNMVRGVRNVRAEMNLPQSQRVKVYIKGYEVTEEEELLLKTLGNIEEVSFVNEKPPKTATAYVEEEIEAYVDLGGLIDFEKEKERLKQIMEKIQKEIDRLEKKLANKDFVEKAPEEVVEETKEKLNTNRERLARLESILRDLE
MGSDKIHHHHHHMAEYFQDDLGFRPFNAQVNHCTRDLGFRLYEPSDVLFASFSDESGMRTYVRTLSFILSKAVADILPGSKLFIEHSLSNGYYCQIKNAHMITPGEIVRIKERMESLIVADIPFRAHCERTEEVAAMFRSMGYEDKADLLETKGMPYSRYYDLDGYPDYYYGSLAPSTGYIGLFGLEPYLDGVLLRIPRRDKPEELAPFVPQPMMRQVFADHDRLLDILQVTHVGSLNKAVDRNDISTMVQVSEAMQEKQIAAIADDIAHKYKEGVRVVLISGPSSSGKTTFCKRLQTQLLTNYIRPYGLSLDDYFINREDSPRDESGDYDFESLYALDLPLFNKDLKQMIAGEEVSLPTYDFATGMRVYKGNTIQLKDGDILILEGIHALNPELIPGVPESSTYKIYVSALTAIGLDAHNRIPSTDNRLIRRLVRDYRYRNYSGLGTLRRWQSVRRGEEKWVFPFQENAHVMFNSAMLYELAVLRAYAEPILQAIPRNEPEYAEARRLLRFLSSFRMIPARLLPNNSLMREFLGGSTFHY
MGSDKIHHHHHHMAFAMKVISQVEAQRKILEEAVSTALELASGKSDGAEVAVSKTTGISVSTRYGEVENVEFNSDGALGITVYHQNRKGSASSTDLSPQAIARTVQAALDIARYTSPDPCAGVADKELLAFDAPDLDLFHPAEVTPDEAIELAARAEQASLKADKRITNTEGGSFNSHYGIKVFGNSHGMLQGYCSTRHSLSSCVIAEENGDMERDYAYTIGRAMADLQAPEWVGAECARRTLSRLSPRKLSTMKAPVIFANEVATGLFGHLVGAIAGGAVYRKSTFLLDSLGKQILPEWLTIEEHPHLLKGLASSPFDSEGVRTERRDIVKDGVLTQWLLTNYSARKLGLKSTGHAGGIHNWRIAGQGLNFEQLLKEMGTGLVVTELMGQGVSGITGDYSRGAAGFWVENGEIQYPVSEITIAGNLKEMWRNIVTVGDDIETRSNIQCGSVLLPEMKIAGQ
MGSDKIHHHHHHMAGPGCMLMFNRAAKDDATPRMRAGVAVNTGHSLAYQHVIEPSAGYQAKLEAELNPENGRRLSASLIAQILNLGSTSDPDIPAASQLAMAILKTIEAFQISREREPGPEHAPLDVLPLALRSPDADERAHEVCQRIAEHARALWQRMINERSGIPITHDTYLKILQLREPYFSFDFWILDEYQDTTPVVDELVNQQEGQKLYIGDPYQAIYSWRGAINALAGPIDRGLPVHYLTDSFRYNHQIAGMATLILRALGEPVPVRGQPRNFIHRRADDNHTIICRTNLSILVRAGELIVRGSPVFVDGGIPKSTYQRIESALALFQGRPNDVRISTLRQMGSWTAFVDYARGLGERADDMMNLIALVEQYQSQLPVLIDTLKRRLPYRNPRKPGQTTLITAHRSKGRQFAHVELDPDIGLPGDLMIKIQNQAPLQPKERESLHLLYVALTRAELSLELPKRIKENLKLLHGWFNRGTDTAETFTAKTTIPLPKAHAQTAQRARTEAFIRAHRRTD
MGSDKIHHHHHHMAHQPVGTGSSIEVSVNPGHSRTSGVISHMSDTLRVAIVGDSDLQGAHVAISKSEFSPAADATDYLVLKDKPATISISRPSSQRVVGITTGSTTLIDFPEGTGSPFGINDMVTLRVIDQPYFEAAIGFGTVTKVWNAANIGGHYSTRITVNADTSGIKTDYVSTNWAELRSSFKVSSLGIGVGGKTGALYFQQVQITGE
MGSDKIHHHHHHMAKAKTQYVCQNCGYISATYLGRCPNCGGWNTLVEETVSSSKSVPRQTAAGSKVKPTRMNDVTITKETRVKTGLDELNRVLGGGVVPGSLVLIGGDPGIGKSTLLLQVSGQLANTGGTVLYVSGEESASQIKMRAGRLGVANSGMYLYPETDMPSIEDVINQMQPDYVVIDSVQTMNVPEMNSAVGSVTQIREVTAELMRIAKSKGVTIFIVGHVTKEGAIAGPKILEHMVDTVLYFEGDMHHTYRILRSVKNRFGSTNEIGIFEMHQDGLQEVANPSEIFLEERLAGATGSAVVVSMEGTRPILVEIQALISPTMYGNAKRTSSGLDHNRVSLIMAVLEKRANLMLQNQDAYLKATGGVKLDEPAIDLAMAVAIASSYRDKEISPTDCFVGEIGLTGEVRRVNRIEERVKEAAKLGFKRIFVPRNNLQGWHAPKDIQVIGVTSIAEALHKVFN
MGSDKIHHHHHHMAKEEALAEAQLDSNRKKIQYRNNNISTQFVTPKYISLLIEKYWHEKNKFRRLLIVIECSKYKNESTIFFFRQVMSGEKDWFIRNYCLRILQRFDEVVYLPPKGKGAQEKYNTLVKHFGCDYKEDIGRTPEDIVKELYENDYIEHAKYFDAFISHAVSNADMVDEFVFKLNSLGLVAFVDWKSDRQDLNRSKLSHYTPTILELRMRQSKNLILIRTKESDLSSWVTWEINYFSKLGKKIAVLNLDNEHGKPHELIDTYPTVRIIDGNILVFNKSKQHKLVDWINES
MGSDKIHHHHHHMAKLLPYQKRWINDRAPVKFWEKSRRIGASWGDAADSALVASKVKDDGGMSTYYLSYNKDMTRQYVADVAGWAKKFNLVAGELEEIVLADEDKDVTIYQVRFASGHVVQGLSSNPSNLRSKQGRVRIDEAAFVEDLGELLKAAIALTMWGGDVAVISTHNGEDSEFNQYIQDIRAGKREYSLHRTDLDDALAEGLYKAICSAKGLTWSVEAEIRWRQKLIADYGDGADEELFCVPSRSSGNWLSRNLIEPCMSAEIPVLRWSPPTANFVDWPLDRAYREVQDWCEGELRPLLDKLHREYVGCRHFFGEDFGRSGDLTVDVPLLELENLSLVTPFLLELRNAPYRTQEQMLAYFVDRLPRFSGGALDARGNGQALAEYARQRYGPELIQEVMLSQGWYREHMPPLKARLEDRTILLPKDAGVLDDLRGIKVFKGIARPPEASIKGKDGQRHCDSAVALALALYACNSIEAGEEWACATAGGGMARRMTHGY
MGSDKIHHHHHHMAKSKSTYSCTECGGQTLKWQGQCPHCQAWNTLVEAMSEKAAARFTPVSESREVQSLSEVEAEEEQRYSTGLLEFDRVLGGGLVQGGVVLLGGDPGIGKSTLLLQALCNMSLLPLARNVLYVSGEESARQVAMRAKRMGVDAKALHLLAEIRLERIQEVLAERKPDVAVIDSIQTVYSDALQSAPGSVAQVRECAAQLTRLAKASGTGMILVGHVTKEGALAGPRVLEHMVDTVLYFEGDTHSSFRLIRAFKNRFGAVNELGVFAMTEKGLREVSNPSALFLSHHGGQVPGSCIMVTQEGTRPLLVEIQALVDEAHSPNARRLSVGLEQNRLAMLLAVLHRHAGIACFDQDVFVNAVGGVKITEPGADLAVLLAIVSSLKNRPLPEKTVVFGEVGLAGEVRPVQRGLERLREAAKLGFVQAIVPKANKPKATPPGIEIIAVERVEEAVARMR
MGSDKIHHHHHHMALRIYGDSISGNCLKVKWTADRLGIAYDWIETNVLTAETRTSAFMALNPAGQVPLAVFPDGRPLAQSNAIIFHLAEGSDLIPGNAFDRAKMLEWMFWEQYSHEPYIAVARFQVLYLGKPVESLEPRLIERGADALARLETQLQRSTFLVGDKLTLADVALVAYTRVAHEGGFDLSLYPAVEAWVGRVEADLGIR

— the DeepSol protein solubility set
